{"source": "patent US5474978A", "about": "“Insulin analog formulations” (Eli Lilly and Company, priority 1994, dated 1995)", "origin": "cited, not measured here", "data": [{"settings": "compared with Zn-insulin", "values": [{"substance": "Ala^B28 Pro^B29 -hI", "Zn-induced association": "little or no Zn-induced association"}, {"substance": "Ala^B28 insulin", "Zn-induced association": "demonstrate Zn-induced association, but less than Zn-insulin"}, {"substance": "Asp^B28 Pro^B29 -hI", "Zn-induced association": "little or no Zn-induced association"}, {"substance": "Asp^B28 insulin", "Zn-induced association": "demonstrate Zn-induced association, but less than Zn-insulin"}, {"substance": "Lys^B28 insulin", "Zn-induced association": "demonstrate Zn-induced association, but less than Zn-insulin"}, {"substance": "Pro^B29 insulin", "Zn-induced association": "demonstrate Zn-induced association, but less than Zn-insulin"}]}]}
